B1: RM_N332_08 Fab (Fab, V domains shown)
VH: QVQLVQSGAEVKKPGSSVKVSCKASGYTFTDHYIHWVRQAPRQGLEWMGWINPYNGNTNYAQKFQGRVTLTRDTSTTTVYMELISLRSEDTAVYYCARGGEYCTGFGCFAGKGDNSLDVWGRGVLVSVSS
VL: DIVMIQTPLSLPVTPGEPASISCRSSQSLFDIEDETTYLEWFLQKPGQSPQPLIYEVSNRASGVPDRFSGSGSDTAFTLKISRVEAEDVGIYYCMQGIEYPFTFGPGTKVEIK
B2: RM_N332_07 Fab (Fab, V domains shown)
VH: QVQLQESGPGLVKPSETLSLTCAVSGASFSSFWWDWIRQPPGRGLEWIGDINGNSGSTNYNPSLKSRVTISKDASKSQFSLKLTSVTAADTAVYYCALQSVTYYEDDSGHYETEMAKFWGQGVLVTVSS
VL: QPVLTQPPSVSGAPGQRVTISCSGSSSNIGGYHVQWYQQLPGTAPKLLIYESNKRPSGISDRFSASQFGTSASLTITGLQSEDEADYYCQSYDSSVSAQVFGGGTRLTVL

Target: BG505_B23 trimer, His-tagged (HIV-1 isolate BG505)
Experiment: SPR; ProteOn XPR36, HC30M XanTec chip; His-tagged trimer (300 to 400 RU, 1 ug/mL) captured by immobilised rabbit anti-His-tag pAb, Fab flowed as analyte at 30 ul/min for 3 min, 5 min dissociation; 1x HBS-EP+ pH 7.4 with BSA 1 mg/ml; equilibrium or kinetic (Langmuir) fits; highest concentration 2x10^-5 M, approximate upper affinity limit 1.6x10^-11 M

Row | Binder | Kd
1 | B1 | < 100 nM
2 | B2 | < 100 nM
